Measured values: publication PMC5842915 (Biochemistry, 2017)
Several values for one entry are separate records, joined by “and”; a condition that tells them apart may be missing. Equal entries are not always repeated. Where two headings read alike, the source gives them in different places. Blank lines part the entries; values can stand above or below the molecule they belong to.

Tests used:
[1] = target: BECN1 CC CC (Homo sapiens) (UniProt Q14457); conditions: cited from earlier work
[2] = target: V250A/M254A/L261A mutant of full-length BECN1 (human) (UniProt Q14457); assay: AUC
[3] = target: Bcl-2 (Homo sapiens) (UniProt P10415); conditions: cited from earlier work
Chain of Bcl-2 (Homo sapiens) (P10415 whole entry, the tested form may be a part): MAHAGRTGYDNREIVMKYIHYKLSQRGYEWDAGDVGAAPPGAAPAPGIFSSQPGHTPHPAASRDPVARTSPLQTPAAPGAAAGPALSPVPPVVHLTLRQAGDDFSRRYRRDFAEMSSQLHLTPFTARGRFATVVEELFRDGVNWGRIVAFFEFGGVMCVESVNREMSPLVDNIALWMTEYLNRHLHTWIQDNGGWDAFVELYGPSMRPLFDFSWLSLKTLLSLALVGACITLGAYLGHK

[4] = target: Bcl-2 (Homo sapiens) (UniProt P10415); conditions: cited from earlier work; remark: listed apart in the source
[5] = target: BECN^1-265 (BECN1 residues 1-265, BARA-less construct) (human) (UniProt Q14457); assay: AUC
[6] = target: human Bcl-2 (residues 1-218) (human, UniProt P10415 1-218); assay: ITC
Chain of human Bcl-2 (residues 1-218) (P10415 1-218): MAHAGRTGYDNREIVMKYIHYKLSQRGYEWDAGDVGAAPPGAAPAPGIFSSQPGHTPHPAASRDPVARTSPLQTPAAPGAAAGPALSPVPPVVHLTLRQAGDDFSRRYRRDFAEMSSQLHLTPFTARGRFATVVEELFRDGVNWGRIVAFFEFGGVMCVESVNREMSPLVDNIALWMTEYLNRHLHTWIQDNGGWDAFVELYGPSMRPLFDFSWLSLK

Molecule: BECN1 CC CC (from UniProt Q14457)
Kd [1]: 48 µM and 45 µM

Kd [2]: 1.86 µM
Molecule: V250A/M254A/L261A mutant of full-length BECN1 (from UniProt Q14457 1-450) (natural protein)

Molecule: BECN1 IDR 1-135 (from UniProt Q14457)
Kd [3]: 8.6 µM

Molecule: BECN1 BH3 peptide 105-130 (from UniProt Q14457)
Kd [4]: 8 µM

Kd [5]: 1.35 µM
Molecule: BECN^1-265 (BECN1 residues 1-265, BARA-less construct) (from UniProt Q14457 1-265) (domain or fragment)

Kd [6]: 9.6 µM
B1: BECN1 BH3 peptide (residues 97-126) (peptide)
peptide: FTLIGEASDGGTMENLSRRLKVTGDLFDIM
